How the values were obtained:
SEC-MALS = target: the molecule itself; assay: SEC-MALS
SEC = target: the molecule itself; assay: SEC

| Protein | stoichiometry N (SEC-MALS) | stoichiometry N (SEC) |
| --- | --- | --- |
| full-length human GBP2 (guanylate-binding protein 2), wild type (natural protein, UniProt P32456 1-591, looked up) MAPEINLPGPMSLIDNTKGQLVVNPEALKILSAITQPVVVVAIVGLYRTGKSYLMNKLAGKKNGFSLGSTVKSHTKGIWMWCVPHPKKPEHTLVLLDTEGLGDIEKGDNENDSWIFALAILLSSTFVYNSMGTINQQAMDQLHYVTELTDRIKANSSPGNNSVDDSADFVSFFPAFVWTLRDFTLELEVDGEPITADDYLELSLKLRKGTDKKSKSFNDPRLCIRKFFPKRKCFVFDWPAPKKYLAHLEQLKEEELNPDFIEQVAEFCSYILSHSNVKTLSGGIPVNGPRLESLVLTYVNAISSGDLPCMENAVLALAQIENSAAVEKAIAHYEQQMGQKVQLPTETLQELLDLHRDSEREAIEVFMKNSFKDVDQMFQRKLGAQLEARRDDFCKQNSKASSDCCMALLQDIFGPLEEDVKQGTFSKPGGYRLFTQKLQELKNKYYQVPRKGIQAKEVLKKYLESKEDVADALLQTDQSLSEKEKAIEVERIKAESAEAAKKMLEEIQKKNEEMMEQKEKSYQEHVKQLTEKMERDRAQLMAEQEKTLALKLQEQERLLKEGFENESKRLQKDIWDIQMRSKSLEPICNIL | 2 | – |
| human GBP2 G domain (1-309), wild type (domain or fragment, UniProt P32456 1-309, looked up) MAPEINLPGPMSLIDNTKGQLVVNPEALKILSAITQPVVVVAIVGLYRTGKSYLMNKLAGKKNGFSLGSTVKSHTKGIWMWCVPHPKKPEHTLVLLDTEGLGDIEKGDNENDSWIFALAILLSSTFVYNSMGTINQQAMDQLHYVTELTDRIKANSSPGNNSVDDSADFVSFFPAFVWTLRDFTLELEVDGEPITADDYLELSLKLRKGTDKKSKSFNDPRLCIRKFFPKRKCFVFDWPAPKKYLAHLEQLKEEELNPDFIEQVAEFCSYILSHSNVKTLSGGIPVNGPRLESLVLTYVNAISSGDLPC | – | 2 |
